Results reported in paper PMC2700855 (Proteins, 2009).
Blank lines part the entries; values can stand above or below the binder they belong to.

B1: RFX5(1-330) (domain or fragment, UniProt P48382 1-330, looked up)
chain: MAEDEPDAKSPKTGGRAPPGGAEAGEPTTLLQRLRGTISKAVQNKVEGILQDVQKFSDNDKLYLYLQLPSGPTTGDKSSEPSTLSNEEYMYAYRWIRNHLEEHTDTCLPKQSVYDAYRKYCESLACCRPLSTANFGKIIREIFPDIKARRLGGRGQSKYCYSGIRRKTLVSMPPLPGLDLKGSESPEMGPEVTPAPRDELVEAACALTCDWAERILKRSFSSIVEVARFLLQQHLISARSAHAHVLKAMGLAEEDEHAPRERSSKPKNGLENPEGGAHKKPERLAQPPKDLEARTGAGPLARGERKKSVVESSAPGANNLQVNALVARLP
B2: RFXB (natural protein, UniProt O14593 1-260, looked up)
chain: MELTQPAEDLIQTQQTPASELGDPEDPGEEAADGSDTVVLSLFPCTPEPVNPEPDASVSSPQAGSSLKHSTTLTNRQRGNEVSALPATLDSLSIHQLAAQGELDQLKEHLRKGDNLVNKPDERGFTPLIWASAFGEIETVRFLLEWGADPHILAKERESALSLASTGGYTDIVGLLLERDVDINIYDWNGGTPLLYAVRGNHVKCVEALLARGADLTTEADSGYTPMDLAVALGYRKVQQVIENHILKLFQSNLVPADPE
B3: RFX5(25-90) (domain or fragment, UniProt P48382 25-90, looked up)
chain: GEPTTLLQRLRGTISKAVQNKVEGILQDVQKFSDNDKLYLYLQLPSGPTTGDKSSEPSTLSNEEYM
B4: RFXAP(215-272,F217Y) (domain or fragment, UniProt O00287 215-272, looked up)
chain: GSYGDRPARPTLLEQVLNQKRLSLLRSPEVVQFLQKQQQLLNQQVLEQRQQQFPGTSM
B5: RFXB(88-260) (domain or fragment, UniProt O14593 88-260, looked up)
chain: TLDSLSIHQLAAQGELDQLKEHLRKGDNLVNKPDERGFTPLIWASAFGEIETVRFLLEWGADPHILAKERESALSLASTGGYTDIVGLLLERDVDINIYDWNGGTPLLYAVRGNHVKCVEALLARGADLTTEADSGYTPMDLAVALGYRKVQQVIENHILKLFQSNLVPADPE
B7: RFX5(88-330) (domain or fragment, UniProt P48382 88-330, looked up)
chain: EYMYAYRWIRNHLEEHTDTCLPKQSVYDAYRKYCESLACCRPLSTANFGKIIREIFPDIKARRLGGRGQSKYCYSGIRRKTLVSMPPLPGLDLKGSESPEMGPEVTPAPRDELVEAACALTCDWAERILKRSFSSIVEVARFLLQQHLISARSAHAHVLKAMGLAEEDEHAPRERSSKPKNGLENPEGGAHKKPERLAQPPKDLEARTGAGPLARGERKKSVVESSAPGANNLQVNALVARLP

How the values were obtained:
SEC = molecular target: the molecule itself; assay: SEC
RFX5(1-330) = molecular target: B1; assay: SEC
RFXAP = molecular target: T1, RFXAP (UniProt O00287 1-272); assay: SEC
T1 sequence (looked up): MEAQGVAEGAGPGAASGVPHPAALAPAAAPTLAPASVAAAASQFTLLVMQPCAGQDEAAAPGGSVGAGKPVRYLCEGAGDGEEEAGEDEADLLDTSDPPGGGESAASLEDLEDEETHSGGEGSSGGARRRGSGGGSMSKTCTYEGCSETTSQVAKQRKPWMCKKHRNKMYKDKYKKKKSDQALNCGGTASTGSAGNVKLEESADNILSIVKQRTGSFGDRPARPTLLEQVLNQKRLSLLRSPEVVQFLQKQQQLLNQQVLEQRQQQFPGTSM

cross-linking [1] = molecular target: the molecule itself; assay: cross-linking
RFXAP(215-272,F217Y) = molecular target: B4; assay: SEC-MALS
cross-linking [2] = molecular target: the molecule itself; assay: cross-linking; remark: listed apart in the source
RFX5(25-90) = molecular target: B3; assay: SEC
RFXB(88-260) = molecular target: B5; assay: SEC-MALS
RFX5(88-330) = molecular target: B7; assay: SEC
[3] = molecular target: RFX5(25-90)2•RFXAP(215-272) complex (UniProt P48382); assay: ITC
[4] = molecular target: RFX5(25-90)2•RFXAP(215-272) complex (UniProt P48382); assay: SEC-MALS; details: scale: RFXB(88-260) per RFX5(25-90)2•RFXAP(215-272)
SEC-MALS = molecular target: the molecule itself; assay: SEC-MALS
RFXB = molecular target: B2; assay: SEC

Binder: B1
stoichiometry N (SEC): 2

Binder: B2
binding result (RFX5(1-330)): binds
binding result (RFXAP): binds

Binder: B3
stoichiometry N (cross-linking [1]): 4
stoichiometry N (RFXAP(215-272,F217Y)): 2 RFX5(25-90) per RFXAP(215-272)
stoichiometry N (cross-linking [2]): 2

Binder: B4
binding result (RFX5(25-90)): binds
binding result (RFXB(88-260)): binds

Binder: B5
binding result (RFX5(88-330)): binds
Kd [3]: 75.5 nM
stoichiometry N [3]: 1.02
stoichiometry N [4]: 1

B6: RFX5(187-265) (domain or fragment, UniProt P48382 187-265, looked up)
chain: EMGPEVTPAPRDELVEAACALTCDWAERILKRSFSSIVEVARFLLQQHLISARSAHAHVLKAMGLAEEDEHAPRERSSK
stoichiometry N (SEC-MALS): 2

Binder: B7
binding result (RFXB): binds

binding result (RFXAP): binds
B8: RFX5(1-90) (domain or fragment, UniProt P48382 1-90, looked up)
chain: MAEDEPDAKSPKTGGRAPPGGAEAGEPTTLLQRLRGTISKAVQNKVEGILQDVQKFSDNDKLYLYLQLPSGPTTGDKSSEPSTLSNEEYM
